The target of this experiment is α-synuclein (α-syn) 1-140 (UniProt P37840). Nature of the experiment: WT-PFF-seeded ThT fibrillation kinetics, NS-TEM. To be noted: reference: unmodified WT monomer plus WT PFF; sites S87.

On to “α-synuclein (α-syn) 1-140 (from UniProt P37840) pS87 monomer plus WT PFF”, for which the “binding against the reference” value is on record as “weaker”.
